Test results reported in doi:10.1101/2020.06.17.157057.
Like-named read-outs stand apart in the source and are kept apart here.

Key:
[1] = molecular target: Maltose Binding Protein (MBP), tethered between beads by DNA handles [MBP: P0AEX9]; assay: optical tweezers
[2] = molecular target: Maltose Binding Protein (MBP), tethered between beads by DNA handles [MBP: P0AEX9]; assay: optical tweezers; remark: listed apart in the source

| tethers that switched to a prolonged unfolded state [1] [%] | tethers that switched to a prolonged unfolded state [2] [%] | Substance |
| --- | --- | --- |
| 20 | 50 | GroEL (wild type) (from UniProt P0A6F5 2-525) (natural protein) |
|  | 30 | GroEL398A (slowly hydrolyzing GroEL) (from UniProt P0A6F5 1-548) (natural protein) |
